From PMC3277711 (Cell, 2012)

Experiments:
[1] = molecular target: chicken CENP-T-W complex (CENP-T histone fold with CENP-W) (chicken) (UniProt F1NPG5); assay: SEC
[2] = molecular target: the molecule itself; assay: SEC
[3] = molecular target: the molecule itself; assay: crystal structure

stoichiometry N (CENP-S-X dimer per CENP-T-W dimer) [1] | Binder | stoichiometry N [2] | stoichiometry N [3]
1 | chicken CENP-S-X complex (full-length CENP-S with CENP-X) (complex) chain 1: MEAAGGEQRELLIQRLRAAVHYTTGCLCQDVAEDKGVLFSKQTVAAISEITFRQCENFARDLEMFARHAKRSTITSEDVKLLARRSNSLLKYITQKSDELASSNMEQKEKKKKKSSAAKGRKTEENETPVTESEDSNMA chain 2: MEEREGGFRKETVERLLRLHFRDGRTRVNGDALLLMAELLKVFVREAAARAARQAQAEDLEKVDIEHVEKVLPQLLLDFVV | 2 CENP-S-X heterodimers in the oligomer | –
– | chicken CENP-SΔC-X complex (complex) chain 1: MEAAGGEQRELLIQRLRAAVHYTTGCLCQDVAEDKGVLFSKQTVAAISEITFRQCENFARDLEMFARHAKRSTITSEDVKLLARRSNSLLKYITQKSDELASSNME chain 2: MEEREGGFRKETVERLLRLHFRDGRTRVNGDALLLMAELLKVFVREAAARAARQAQAEDLEKVDIEHVEKVLPQLLLDFVV | – | 2 CENP-S-X heterodimers in the oligomer
